Assay results taken from the domain aggregation screens of Martell et al. (2025).

Experiment: soluble fraction after stress (log2 fold change); higher = more stays soluble; pooled small domains, quantitative proteomics
Details: stress: 75 degC
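Note: 20 min heating vs room temperature control held 20 min.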

Sequence	soluble fraction (log2)
HMKESRLFRILYYLLQHKKATAPELAEEFEVSVRTIYRDIDYISSAGVPIYATQGKDGGIAILDSF	-0.777
HMKETLSINSTDFEVRRSSRRKRISVGFDTGTETFFIAAPTKLAGTDILRILGPQISRLMDRLT	-2.22
HMKEVDERPWGKYEVLLDAPDVKVKRITVNPGQRLSYQYHEKRAEVWTVVSGILTIILEDDKLFRG	0.17
HMKFIPPSLEEARAYFVEKGSSEPEAEKFVNHFDSIGWKVGRARTPMKKWKSAANNWIANNREWNQ	-0.543
HMKFKDYYAALGIDRNADLEQIKKAYRKLARQYHPDVSKAPDAEARFKDAAEAYATLKNPEKRAAYDELGS	0.0895
HMKFLHLADLHLGKRVNGFSMLEDQAYILRQILTILDDERPDGVLIAGDVYDKPVPPTEAVELLD	-0.859
HMKFLYQKAREEIISLIQDGEIKPSEKIMPERELSELLGYNRMTIKKAINSLVAEGVLMKKRGAGTFLLG	-0.292
HMKFLYQQVYQDIKDKITSAQYQFGDLLPSEREIGEEYHVDRTTVRKAFSLLVDEGLVEKRAGKGSVVIS	-0.74
HMKFTELEQLMLKREINTLADIARVLKTTPQAVSNWKARDQIPYHIVAKINASINKDSNDSSLSI	-0.328
HMKFTSEKDISLLELVKAKMGFVSNTKARNVIKIGQIMVSGKVIKIPSTLIKPGTEVELARRV	-1.76
HMKFYKMIDESDEKIENPEIMIFQIIELVSSTTYSAIINKEPVDVETLKPYLYQTIRTIIINHQS	0.363
HMKGEKVTKIELSNFIKFLINDLENKGFFNPPEKKDSMIDNIYSIYNKMTLTKKELNMLWGMHKKLK	-1.9
HMKGERHNKILELIQQHAIDRQEDLLRYLKEAGFQVTQATVSRDIRELHLVKVAAGGGQYRYVSAAAAS	-1.04
HMKGIHDYITKDGLRVVKVHYSADPDKDVTTVEGKKWMAKALLGYPGGLEGAKWRREMEIDFNA	-0.167
HMKGILVPASSIISDGDKNYVWTVEKGKAKKVEVTLGNADAENQEISSGLTKDSKVITNPTDSLKDGQEV	0.228
HMKGKDLQDAVVTVVGGAENWNAIRAWAQASASDSEKREINAAFQSGKLMATMMAERLALAYQQSG	0.182
HMKGKITTNWVSLTSDLGWLRSELYSSGSVLEERISNEGLIELHLENFQNDLIKLLEVEGFDLIKE	-3.18
HMKGQLVVFPNPASSNDMVRFNKNISFSIFDITGHLVDTKRNVNELSVGNLEAGTYILRTEQGDVLRMVI	-1.45
HMKGRPTTAIITDERTNLRSGPGATNKTIAQAGAGEKLAIIDEKDGWYQVSRAGINGWVAGWVIDVAW	-1.83
HMKGSIFLDEATKMVDNSALKSLNTFLEEYARETNNQIFLISHQETPAEVTQIKLKKVGGETSYE	0.154
HMKGSPFSQLPKEKKKRILQAAIEVFAQNDYKHASTDEIASRAGISKGLLFYYFHDKKTLYFYLGEYLKR	0.118
HMKGTLPEMITSREEVVLKFMVNGWDAKRIASELDISVLTVRKHIANIYEKLHVQSKAEIISMAHQQKWFN	-3.27
HMKGTSIELIVPQDIAGLRLDQVLAKLLPQWSRSRLQSWINEKHITVNGQTTTAKQKLWGNETIQIIPPI	-1.45
HMKHEFSEEWLDWIKSNIADGQNKNGLFKVLLNHGYAYDAVREVMQYEPTVPLDELVDPLRA	-0.143

Sequence	soluble fraction (log2)
HMKHFNDEELDGFAGLKSDDYNEEQVELFRNIFEELHPDEIIEWTESLRRRGIEIPSSLKDEVVMMIN	0.29
HMKHFTYEEMELMSIYDPGTREGLIANLEEMRGYLEPDETELRELTDSALEKLRELSDADYEQLELI	-0.516
HMKHMTMYEAAKIAKEVGAPKLWLTHYSPSMTRPEEFMDDVRKIFPAAYAAKDGWTMELNFDEG	-0.74
HMKHRTQMDIQQLPAIEGKGGFEYKISIIHLSTRIKYSEIHDNYNTTTIAKVYENAIERLPPF	-2.39
HMKHSLNHLGLWLLPELSRRDIQLREFAHLLGTTSQGLSDLLRGQRFSSHTLAQWQLRFQEKLDEIDQAS	-1.99
HMKHTVSVDRLQPGVFVSLGGLSWLDHPFLLNRFRLTDHDQIKVLRSLGVKEIEWDPTRSTAQPLPE	-1.04
HMKIAPRTAENQQLRKMILEIYTTSKKRVGPAKVRRMLLRDYGISISIGRVYRLMSTMNLPKMS	0.0421
HMKIDLPIWLNKKAWEAWVEYKKERKQKLTPSIIKFQLRILEKNKEDHPEIIRNSITNGWTGLFPLK	-1.81
HMKIEDSNTIKLKANQAYKTHYYSEAIKLYDELLTKYEPNSEAIKLNLAHAHFKAKGFAAASKLYT	0.0472
HMKIELTDQQKSLVVDEWNKGEANPPSLLQLIRLAYPDQPHLDGRSKEGKAVKAFLATRDINPLA	0.0244
HMKIETVENPLLERTEISALFDSKSGSLTRKEAIDLISKKARIDSSTVYAIKLSNSSGSTRIIGLFY	0.16
HMKIIDDIQEFAGVTKTQNTFFHIFNHLHQNGKQLILTSDRAPVMLQGMEERLLTRFKWGLVAELE	0.285
HMKIKKIWFDGDYIYGMDERNNTYRQSLLWYSKLRNASAEERERYTFSTIGIHWRELDEDVSFESF	-3.03
HMKIKLQATEQQRKTLDELYVQLKKLEPTSKEDLSLLYRLENPHLVSKQEAQGLISIAIGRVGSLAIEQQ	-0.44
HMKINKQHLAFQIFGIRAKLGLSMEQFGELLGANKSSVSGWERGTVVPSSQRLKKIAELGKISLAELLTP	-3.01
HMKINVQETEVYRYLLERADRLYSMILGEERENLMERTRFFEKEVAKASLPHLPKLYDEFSIYLDRLERG	-0.393
HMKIPYGELIKLLNAAAPKLQDAQGWMDMEAAGQFIGSRWSYLDYGFKDWPDSFKTVHGLEIQGQRMRLA	-0.577
HMKIQISGSQRIDENVVVKVAGLSFPQSLLSLEPGQIESKLMQELPVQEVSVQRRLLPPGLDIQLVE	-0.0996
HMKIQTYEDFRNAYPDIQGSLFGSAERYKTDLDWGDVAAKYDADEELKNVRNIFQLVRRYEQKYS	0.612
HMKISIPQEYFEIYNVLKQRPMHINEISKILKKPVSEISGTISLMEIEGYITKLTTDQYVLKKI	-0.473
HMKITADQEIETAINYFKKSIAEKGWKGVNPDEFKQMNDYLSETFGYSATIKFQKALDEQGLMVDE	-0.0068
HMKITININIETLSHHIKQSGVPLGRLQESVPDYNEIVTGNKSPTYQQLEKISKLIRVPLGLLVIESPL	0.039
HMKITLAESVYERIRRDIITNQLKPGEKINIRELSTRYEASETPIRLALNRLASENIIEHFPRQGMRVK	-1.4
HMKIVPEPGTVLIREYQEERHEVTVTLDGAFDYKGTLYSSLSEIARLITGTRWSGPVFFGLRS	-0.369

Sequence	soluble fraction (log2)
HMKIYDQVVDRIKDRISKGDMPQGSALPPERQLIDELNVSRSSLREGFRILEMMGLIESIPGKGRFVRTSR	-0.607
HMKKAIYPGSFDPLTLGHIDIIKRASGIVDELVVGVLNNSAKNSLFSLDERVSMIEEMTKDLPNVSVTSFD	0.16
HMKKEDFLEILRDYLKKGFSEDEVMDILRDYEEYFVDGIIEGKSEIEIIQSLGSPKEIANELLAES	-0.631
HMKKEQVIVPNVVGDTYDVALRKLTDAKLKVGETFPADREGHQGVIEKQSPAAGETVDEDTPVALFFKV	0.0903
HMKKERITWDERLERFAKYITENESLPYPSSKEHAWFEENKALYDAGELESVRAQSFSFLLKILRRMNLI	-0.787
HMKKGATVSGVIVEKTKKSLIIDLGAKTEGVVADKEFEFAIDFVKELKKGDEVKAIVISTDNDKGQVVLSL	-0.414
HMKKHALFTLFKHHNANGTTVWYARFWDDATQRYAIARSTGVLAQGKRERHDEAITVAREMASSIQFS	-2.81
HMKKHAPSLMRQIRRELKEGKSPESLLSKAKLISDSYYRSLSFYLLIPYLSPNSKQFQEAISLAGKDID	0.175
HMKKKSYIVSFATDEDAQRFAREGFEVISLSGRQITVSLKGEMMPLVKALGSYQVVGLETVA	-1.77
HMKKLPDDANDIIERVSSRLAQKFRFGYHTIDDMKQQAALFAWEGIYDSWDDSRPLENFLWIHVRNRLYN	-0.111
HMKKLTGVQKAAILMIALGPDISSSIIKRLPENMVERITYEIANMTKITAQQRNDILKEFMDMTVAQ	-3.64
HMKKNTEALDYYKKAGANFPEDEVISSEYLFRAAQLQEVLGKTDEAVAIYKDIKAKYPTTEIGLNVDKFIL	0.0379
HMKKQLKSEAVADELRRKILSGGFPDKRLPRKDELTEYFQVSQKTVEAALKMLTAEGLIRGVKGTGIFVNG	-0.703
HMKKQLTISDGDWAGKVSSMLEDMGVINSASEFDKYLSDNGYSNVIKSGTYDVSPEDTFQELAEKIT	0.952
HMKKRDAEIMLQREFKLTEAIAMVRDRDIQELLPIALYFKVNINQPTAEIRYNLLNIAKSKTQEFIEAFD	-2.14
HMKKRDANSQGTRLILFYMLQRLHTEYKLQGFVTYNQRRSFREIYDAYHALGGNGFGTAMWEEVKELDLK	-2.18
HMKKTAAKVLGESEGKPVTVQSGRYGPYVQLGSIRATLPKDLEQDDVTLDRALELISAKAERAGK	-0.0332
HMKKTDFNVENYDIEELAAILNFKYVPLNQGLIRDRIKDMKQRFKNKPEYIKFFTDVEIKLVNNLNLFN	-1.67
HMKKTFSKSSVMEAIFRDIPNITIPNAHEVYTLIKNISVMNKRKSITSEDIEKAYDALGLTP	-0.928
HMKKTPLSELTNRAVELFIETVFMERNYSVSSQRQFISALKIFTVFYPQTKIHNLSLERLQSSFDKLLN	-1.25
HMKKTTEFAVTPEFQQRLEASPELKAAFQALTPGRQRAHLLFFAAPKQAQTRQARIEKSLPQIMAGKGLN	-0.2
HMKKTVTDSVELLTFLKDIFTNTSTNKLRKMLTTGRVTVNNIVIHKAKHILVQNDVVEIGDK	-3.37
